Measurements taken from patent US20190119389A1 (POTENZA THERAPEUTICS, published 2019).

Columns and labels:
[1] = target: T1, monomeric mutant NRP1 b1 D320A (human, UniProt O14786 273-427, limits assumed); experiment: BLI Octet, MAB12 captured on anti-human Fc sensors, monomeric mutant NRP1 b1
T1 construct: Single point mutant of the human NRP1 b1 domain
T1 chain: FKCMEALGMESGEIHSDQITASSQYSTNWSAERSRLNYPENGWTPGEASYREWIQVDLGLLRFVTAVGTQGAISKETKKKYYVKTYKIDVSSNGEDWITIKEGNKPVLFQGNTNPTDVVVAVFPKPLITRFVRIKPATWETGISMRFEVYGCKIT

[2] = target: T2, monomeric mutant NRP1 b1 Y354A (human, UniProt O14786 273-427, limits assumed); experiment: as above
T2 construct: Single point mutant of the human NRP1 b1 domain
T2 chain: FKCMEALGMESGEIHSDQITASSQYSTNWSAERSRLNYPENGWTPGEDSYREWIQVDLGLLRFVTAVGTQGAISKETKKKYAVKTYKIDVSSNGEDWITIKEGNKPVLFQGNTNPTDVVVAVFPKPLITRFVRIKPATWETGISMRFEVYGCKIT

[3] = target: T3, monomeric mutant NRP1 b1 K351N (human, UniProt O14786 273-427, limits assumed); experiment: as above
T3 construct: Single point mutant of the human NRP1 b1 domain
T3 chain: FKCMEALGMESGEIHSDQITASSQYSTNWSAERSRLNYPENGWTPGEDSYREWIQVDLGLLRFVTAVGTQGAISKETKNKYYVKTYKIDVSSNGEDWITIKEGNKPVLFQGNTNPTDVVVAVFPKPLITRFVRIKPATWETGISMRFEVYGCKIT

[4] = target: T4, monomeric mutant NRP1 b1 K352G (human, UniProt O14786 273-427, limits assumed); experiment: as above
T4 construct: Single point mutant of the human NRP1 b1 domain
T4 chain: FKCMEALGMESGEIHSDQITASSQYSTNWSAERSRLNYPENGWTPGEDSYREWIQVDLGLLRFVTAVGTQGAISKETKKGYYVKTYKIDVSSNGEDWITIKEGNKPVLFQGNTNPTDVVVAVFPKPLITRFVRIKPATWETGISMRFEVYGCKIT

[5] = target: T5, monomeric mutant NRP1 b1 P317A (human, UniProt O14786 273-427, limits assumed); experiment: as above
T5 construct: Single point mutant of the human NRP1 b1 domain
T5 chain: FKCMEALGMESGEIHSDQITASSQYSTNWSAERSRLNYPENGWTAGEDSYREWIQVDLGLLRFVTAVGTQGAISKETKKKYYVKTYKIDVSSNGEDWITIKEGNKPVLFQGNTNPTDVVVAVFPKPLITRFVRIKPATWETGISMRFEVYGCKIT

[6] = target: T6, monomeric mutant NRP1 b1 T413A (human, UniProt O14786 273-427); experiment: as above
T6 chain: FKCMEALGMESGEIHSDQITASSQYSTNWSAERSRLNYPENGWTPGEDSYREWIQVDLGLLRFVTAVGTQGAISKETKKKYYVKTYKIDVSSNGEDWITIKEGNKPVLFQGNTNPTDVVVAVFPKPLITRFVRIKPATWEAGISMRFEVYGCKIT

[7] = target: T7, monomeric mutant NRP1 b1 Y353A (human, UniProt O14786 273-427, limits assumed); experiment: as above
T7 construct: Single point mutant of the human NRP1 b1 domain
T7 chain: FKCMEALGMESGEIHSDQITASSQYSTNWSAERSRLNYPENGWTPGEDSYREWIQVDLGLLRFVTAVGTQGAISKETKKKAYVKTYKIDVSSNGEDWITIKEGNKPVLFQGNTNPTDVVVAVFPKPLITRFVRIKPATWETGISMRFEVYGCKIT

[8] = target: T8, monomeric mutant NRP1 b1 T349A (human, UniProt O14786 273-427, limits assumed); experiment: as above
T8 construct: Single point mutant of the human NRP1 b1 domain
T8 chain: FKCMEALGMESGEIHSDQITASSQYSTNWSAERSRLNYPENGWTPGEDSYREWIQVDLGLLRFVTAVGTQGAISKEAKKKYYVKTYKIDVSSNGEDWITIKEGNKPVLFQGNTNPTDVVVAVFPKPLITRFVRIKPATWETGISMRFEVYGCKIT

[9] = target: T9, monomeric mutant NRP1 b1 E412H (human, UniProt O14786 273-427, limits assumed); experiment: as above
T9 construct: Single point mutant of the human NRP1 b1 domain
T9 chain: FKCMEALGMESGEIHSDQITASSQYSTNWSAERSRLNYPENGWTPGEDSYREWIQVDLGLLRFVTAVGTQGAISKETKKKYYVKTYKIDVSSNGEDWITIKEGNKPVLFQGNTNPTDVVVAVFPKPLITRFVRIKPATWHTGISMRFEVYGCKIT

recombinant human NRP-1 [10] = target: T10, recombinant human NRP-1 (human, UniProt O14786 22-856, limits assumed); experiment: blocking ELISA: human NRP-1 coated, VEGFA added with IgG1 antibody; competitor VEGFA
T10 construct: also called biotinylated human NRP-1

Mouse NRP-1 His = target: T11, Mouse NRP-1 His (mouse, UniProt P97333 22-856); experiment: BLI ForteBio, IgG1 N297A on AHQ sensor, 100 nM monomeric antigen, 1:1 fit
T11 construct: Recombinant monomeric protein; also called mNRP-1; not shown: His tag

Cyno NRP-1 His = target: T12, Cyno NRP-1 His (cynomolgus monkey, UniProt O14786 22-856 (human entry), limits assumed); experiment: as above
T12 construct: Recombinant monomeric protein; also called cynomolgus monkey NRP-1-His; cNRP-1; not shown: His tag
T12 chain: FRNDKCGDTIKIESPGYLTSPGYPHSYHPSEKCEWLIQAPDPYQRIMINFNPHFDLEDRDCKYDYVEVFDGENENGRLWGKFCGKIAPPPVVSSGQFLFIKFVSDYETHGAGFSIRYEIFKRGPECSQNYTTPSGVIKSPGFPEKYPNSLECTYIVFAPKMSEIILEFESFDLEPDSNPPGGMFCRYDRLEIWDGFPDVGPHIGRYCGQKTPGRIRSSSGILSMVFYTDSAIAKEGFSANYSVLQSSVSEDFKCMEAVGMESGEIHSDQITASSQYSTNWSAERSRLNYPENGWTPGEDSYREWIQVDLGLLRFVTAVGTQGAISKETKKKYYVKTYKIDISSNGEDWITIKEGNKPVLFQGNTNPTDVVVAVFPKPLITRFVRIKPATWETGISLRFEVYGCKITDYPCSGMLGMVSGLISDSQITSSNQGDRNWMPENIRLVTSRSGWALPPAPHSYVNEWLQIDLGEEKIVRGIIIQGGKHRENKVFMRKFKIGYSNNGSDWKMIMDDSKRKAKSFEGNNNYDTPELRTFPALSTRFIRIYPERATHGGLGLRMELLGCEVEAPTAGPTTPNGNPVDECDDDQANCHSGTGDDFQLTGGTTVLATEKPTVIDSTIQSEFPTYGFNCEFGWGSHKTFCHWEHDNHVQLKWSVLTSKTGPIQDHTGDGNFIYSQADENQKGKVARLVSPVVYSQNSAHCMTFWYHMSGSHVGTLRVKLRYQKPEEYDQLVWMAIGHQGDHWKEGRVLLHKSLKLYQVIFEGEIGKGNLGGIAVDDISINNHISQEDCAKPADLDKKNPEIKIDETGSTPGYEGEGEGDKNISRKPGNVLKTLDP

Human NRP-1 His = target: T13, Human NRP-1 His (human, UniProt O14786 22-856); experiment: as above
T13 construct: Recombinant monomeric protein; Biotinylated in the MSD-SET assay; also called hNRP-1; not shown: His tag

recombinant human NRP-1 [11] = target: T10, recombinant human NRP-1; experiment: blocking ELISA: SEMA3A coated, biotinylated human NRP-1 preincubated with IgG1 antibody; competitor SEMA3A

T10 sequence (O14786 22-856 V179A limits assumed): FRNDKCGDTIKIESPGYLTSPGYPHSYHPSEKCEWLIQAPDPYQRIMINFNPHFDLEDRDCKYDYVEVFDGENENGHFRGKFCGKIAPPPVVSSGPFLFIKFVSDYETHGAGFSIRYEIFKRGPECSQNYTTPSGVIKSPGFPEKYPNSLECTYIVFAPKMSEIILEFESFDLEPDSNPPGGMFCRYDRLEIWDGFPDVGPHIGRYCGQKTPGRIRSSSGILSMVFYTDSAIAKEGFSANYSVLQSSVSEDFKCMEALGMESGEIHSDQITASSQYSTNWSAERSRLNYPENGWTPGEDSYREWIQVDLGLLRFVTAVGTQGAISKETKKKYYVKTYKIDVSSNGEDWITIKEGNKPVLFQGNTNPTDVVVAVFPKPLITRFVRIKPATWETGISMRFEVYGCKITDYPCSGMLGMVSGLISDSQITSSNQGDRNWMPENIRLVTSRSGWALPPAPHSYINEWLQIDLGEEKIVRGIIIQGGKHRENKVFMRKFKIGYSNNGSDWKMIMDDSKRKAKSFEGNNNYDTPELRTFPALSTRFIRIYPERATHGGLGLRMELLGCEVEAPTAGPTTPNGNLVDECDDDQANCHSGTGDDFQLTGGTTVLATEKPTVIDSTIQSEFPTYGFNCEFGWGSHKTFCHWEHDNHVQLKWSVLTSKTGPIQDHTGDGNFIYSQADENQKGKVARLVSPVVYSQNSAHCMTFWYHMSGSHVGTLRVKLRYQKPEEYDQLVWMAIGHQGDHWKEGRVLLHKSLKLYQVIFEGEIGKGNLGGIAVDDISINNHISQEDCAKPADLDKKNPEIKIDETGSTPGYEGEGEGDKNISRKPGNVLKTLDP
T11 sequence (P97333 22-856 limits assumed): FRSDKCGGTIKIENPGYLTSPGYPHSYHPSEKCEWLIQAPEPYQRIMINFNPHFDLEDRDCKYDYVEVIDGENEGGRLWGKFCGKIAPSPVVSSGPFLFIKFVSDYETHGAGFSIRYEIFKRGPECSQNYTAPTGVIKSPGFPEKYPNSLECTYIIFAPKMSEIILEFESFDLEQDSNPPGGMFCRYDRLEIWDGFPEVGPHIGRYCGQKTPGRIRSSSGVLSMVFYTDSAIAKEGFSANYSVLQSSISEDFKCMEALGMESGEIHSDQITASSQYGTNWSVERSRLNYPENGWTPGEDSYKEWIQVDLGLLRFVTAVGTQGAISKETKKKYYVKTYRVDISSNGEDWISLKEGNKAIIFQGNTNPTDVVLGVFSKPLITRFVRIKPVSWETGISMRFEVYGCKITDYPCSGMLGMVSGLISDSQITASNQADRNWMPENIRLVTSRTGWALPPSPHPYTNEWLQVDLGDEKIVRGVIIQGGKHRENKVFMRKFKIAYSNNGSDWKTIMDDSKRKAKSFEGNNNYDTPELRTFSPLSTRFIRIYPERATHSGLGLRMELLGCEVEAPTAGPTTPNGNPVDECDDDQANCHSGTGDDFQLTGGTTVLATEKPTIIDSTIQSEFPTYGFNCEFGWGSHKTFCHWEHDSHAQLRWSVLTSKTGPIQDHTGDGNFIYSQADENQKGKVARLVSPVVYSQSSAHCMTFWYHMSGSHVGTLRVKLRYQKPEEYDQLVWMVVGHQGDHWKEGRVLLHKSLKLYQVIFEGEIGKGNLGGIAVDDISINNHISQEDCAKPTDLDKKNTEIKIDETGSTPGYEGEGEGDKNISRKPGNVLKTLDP
T13 sequence (O14786 22-856 V179A limits assumed): as the sequence (O14786 22-856 V179A limits assumed) above

binding result [1]: binds | binding result [2]: binds | binding result [3]: no binding | binding result [4]: binds | binding result [5]: binds | binding result [6]: binds | binding result [7]: binds | binding result [8]: binds | binding result [9]: no binding | IC50 (recombinant human NRP-1 [10]): 6 nM | Kd (Mouse NRP-1 His): 0.44 nM | Kd (Cyno NRP-1 His): 0.469 nM | Kd (Human NRP-1 His): 0.481 nM | IC50 (recombinant human NRP-1 [11]): 0.8 nM
B1: MAB12 (antibody, V domains shown)
VH: EVQLLESGGGLVQPGGSLRLSCAASGFTFSSVAMVWVRQAPGKGLEWVSAISGSGGATYYADSVEGRFTISRDNSKNTLYLQMNSLRAEDTAVYYCAKDPGYDSSRYYYSNYGMDVWGQGTTVTVSS
VL: DIQMTQSPSSLSASVGDRVTITCRASQSISSYLNWYQQKPGKAPKLLIYGASSLQSGVPSRFSGSGSGTDFTLTISSLQPEDFATYYCQQTYSLYTFGGGTKVEIK
